Source: paper PMC11228049

Assays:
untagged βarr2 [1] = target: untagged βarr2 (UniProt P29067); assay: ITC; βarr1 (15 μM) or βarr2 (20 μM) in the sample cell, 400 μM Gβγ C68S in the syringe; 25 °C; 20 mM HEPES, 150 mM NaCl, 0.02% DDM, pH 7.4; an additional early binding site was excluded, the rest fitted to a one-site model
untagged βarr2 [2] = target: untagged βarr2 (UniProt P29067); assay: ITC; βarr form in the sample cell, WT Gβγ in the syringe; 25 °C; 20 mM HEPES, 150 mM NaCl, 0.02% DDM, pH 7.4; one-site model
βarr2 in excess V2Rpp = βarr2 in excess V2Rpp (UniProt P29067); assay: as above

Chain of UniProt P29067 (P29067 whole entry): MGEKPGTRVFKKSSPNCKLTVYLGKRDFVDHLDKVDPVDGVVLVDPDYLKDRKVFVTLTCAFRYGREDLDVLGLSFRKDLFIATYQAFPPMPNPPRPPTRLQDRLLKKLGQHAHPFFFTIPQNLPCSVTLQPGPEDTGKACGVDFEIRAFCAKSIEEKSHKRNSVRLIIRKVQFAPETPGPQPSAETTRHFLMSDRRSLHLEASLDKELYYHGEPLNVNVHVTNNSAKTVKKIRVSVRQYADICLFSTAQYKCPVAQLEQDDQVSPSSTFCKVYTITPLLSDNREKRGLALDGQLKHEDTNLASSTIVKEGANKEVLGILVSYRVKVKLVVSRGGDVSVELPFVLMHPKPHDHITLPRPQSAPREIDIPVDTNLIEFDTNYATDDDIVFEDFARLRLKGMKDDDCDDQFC

Row | Substance | Kd (untagged βarr2 [1]) [µM] | Kd (untagged βarr2 [2]) [µM] | stoichiometry N (untagged βarr2 [2]) [site] | Kd (βarr2 in excess V2Rpp) [µM] | stoichiometry N (βarr2 in excess V2Rpp) [site]
1 | Gβ1γ2 with a C68S mutation in Gγ2 (from UniProt P62873 1-340; P59768 1-71) (complex) | 0.9 | – | – | – | –
2 | recombinant purified WT Gβ1γ2 (from UniProt P62873 1-340; P59768 1-71) (complex) | – | 1.5 | 1 | 1.8 | 1
